From patent publication US20200123227A1, “INTERFERON PRODRUG FOR THE TREATMENT OF CANCER” (The Board of Regents of the University of Texas System, published 2020)

Legend:
[1] = biological target: cell surface IFNAR1/IFNAR2 heterodimer (RAW-Lucia ISG cells) (Mus musculus (Mouse)) (UniProt P33896)
human R2-SUB (human) = human R2-SUB (human) (UniProt P01563)
IFNa4-Fc = IFNa4-Fc (human); test: cell-based or functional assay

R1-IFNa4-Fc (from UniProt P07351) (Fc fusion)
IFN activity, luciferase reporter assay in RAW-Lucia ISG cells [1]: < 125 fold

R2-IFNa4-Fc (from UniProt P07351) (Fc fusion)
IFN activity, luciferase reporter assay in RAW-Lucia ISG cells [1]: > 125 fold

rmMMP-9 (from UniProt P41245) (enzyme)
cleavage by rmMMP-9 at 37 C for 0, 0.5, 2 or 6 hours, digests separated on a stain-free gel (human R2-SUB (human)): 100%

B1: Mouse IFNAR2-ECD (receptor)
chain: SLETITPSAFDGYPDEPCTINITIRNSRLILSWELENKSGPPANYTLWYTVMSKDENLTKVKNCSDTTKSSCDVTDKWLEGMESYVVAIVIVHRGDLTVCRCSDYIVPANAPLEPPEFEIVGFTDHINVTMEFPPVTSKIIQEKMKTTPFVIKEQIGDSVRKKHEPKVNNVTGNFTFVLRDLLPKTNYCVSLYFDDDPAIKSPLKCIVLQPGQESGLSESA
IFN activity, luciferase reporter assay in RAW-Lucia ISG cells (IFNa4-Fc): ≥ 125 fold

B2: Mouse IFNAR1-ECD (receptor)
chain: ENLKPPENIDVYIIDDNYTLKWSSHGESMGSVTFSAEYRTKDEAKWLKVPECQHTTTTKCEFSLLDTNVYIKTQFRVRAEEGNSTSSWNEVDPFIPFYTAHMSPPEVRLEAEDKAILVHISPPGQDGNMWALEKPSFSYTIRIWQKSSSDKKTINSTYYVEKIPELLPETTYCLEVKAIHPSLKKHSNYSTVQCISTTVANKMPVPGNLQVDAQGKSYVLKWDYIASADVLFRAQWLPGYSKSSSGSRSDKWKPIPTCANVQTTHCVFSQDTVYTGTFFLHVQASEGNHTSFWSEEKFIDSQKHILPPPPVITVTAMSDTLLVYVNCQDSTCDGLNYEIIFWENTSNTKISMEKDGPEFTLKNLQPLTVYCVQARVLFRALLNKTSNFSEKLCEKTRPGSFST
IFN activity, luciferase reporter assay in RAW-Lucia ISG cells (IFNa4-Fc): ≥ 125 fold
